Measurements reported in patent US20040185507A1.

Key:
[1] = molecular target: human αVβ3 integrin, purified (human) (UniProt P06756); assay: ELISA saturation binding on alphaVbeta3 coated plate, non-linear regression (n = 6)
[2] = molecular target: αvβ3 integrin on human cells (human) (UniProt P06756); assay: 125-I antibody saturation binding on M21 cells (n = 3)
[3] = molecular target: αvβ3 integrin on human cells (human) (UniProt P06756); assay: 125-I antibody saturation binding on A375S2 cells (n = 6)
[4] = molecular target: αvβ3 integrin on human cells (human) (UniProt P06756); assay: 125-I antibody saturation binding on M21 cells (n = 7)
[5] = molecular target: αvβ3 integrin on human cells (human) (UniProt P06756); assay: cell-based or functional assay
[6] = molecular target: αvβ3 integrin on human cells (human) (UniProt P06756); assay: 125-I antibody saturation binding on A375S2 cells (n = 3)
[7] = molecular target: human αVβ3 integrin, purified (human) (UniProt P06756); assay: ELISA on αVβ3 coated plates

Chain of αvβ3 integrin on human cells (human) (P06756 31-1048, chain 1 of 2): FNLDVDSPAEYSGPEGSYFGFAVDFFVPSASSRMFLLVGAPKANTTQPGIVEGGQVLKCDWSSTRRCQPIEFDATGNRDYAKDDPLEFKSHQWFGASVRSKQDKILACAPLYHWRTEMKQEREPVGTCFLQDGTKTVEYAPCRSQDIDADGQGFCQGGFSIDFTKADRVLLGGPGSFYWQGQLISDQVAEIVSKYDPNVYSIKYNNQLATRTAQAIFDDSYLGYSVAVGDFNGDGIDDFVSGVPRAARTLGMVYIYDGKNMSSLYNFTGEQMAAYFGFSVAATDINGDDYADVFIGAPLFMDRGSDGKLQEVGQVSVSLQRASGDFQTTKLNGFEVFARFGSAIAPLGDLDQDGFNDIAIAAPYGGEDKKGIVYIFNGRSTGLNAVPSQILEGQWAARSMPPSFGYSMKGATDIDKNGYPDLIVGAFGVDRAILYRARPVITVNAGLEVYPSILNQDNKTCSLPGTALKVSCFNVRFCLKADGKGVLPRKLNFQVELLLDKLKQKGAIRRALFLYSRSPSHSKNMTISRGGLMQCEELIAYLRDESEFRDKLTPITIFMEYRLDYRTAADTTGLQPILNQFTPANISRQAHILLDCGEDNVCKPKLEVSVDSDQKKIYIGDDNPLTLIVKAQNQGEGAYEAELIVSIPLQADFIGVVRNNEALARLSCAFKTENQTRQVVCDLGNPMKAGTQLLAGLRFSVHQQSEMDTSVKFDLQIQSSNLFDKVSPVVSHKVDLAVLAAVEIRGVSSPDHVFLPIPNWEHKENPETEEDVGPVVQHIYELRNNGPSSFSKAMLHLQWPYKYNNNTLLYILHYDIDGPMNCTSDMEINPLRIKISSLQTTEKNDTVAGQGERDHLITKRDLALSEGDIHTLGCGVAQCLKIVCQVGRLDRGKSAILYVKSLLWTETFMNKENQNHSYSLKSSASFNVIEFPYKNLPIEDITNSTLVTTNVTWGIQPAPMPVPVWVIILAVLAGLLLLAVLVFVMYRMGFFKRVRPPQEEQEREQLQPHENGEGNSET
Chain of αvβ3 integrin on human cells (human) (P05106 27-788, chain 2 of 2, further chain): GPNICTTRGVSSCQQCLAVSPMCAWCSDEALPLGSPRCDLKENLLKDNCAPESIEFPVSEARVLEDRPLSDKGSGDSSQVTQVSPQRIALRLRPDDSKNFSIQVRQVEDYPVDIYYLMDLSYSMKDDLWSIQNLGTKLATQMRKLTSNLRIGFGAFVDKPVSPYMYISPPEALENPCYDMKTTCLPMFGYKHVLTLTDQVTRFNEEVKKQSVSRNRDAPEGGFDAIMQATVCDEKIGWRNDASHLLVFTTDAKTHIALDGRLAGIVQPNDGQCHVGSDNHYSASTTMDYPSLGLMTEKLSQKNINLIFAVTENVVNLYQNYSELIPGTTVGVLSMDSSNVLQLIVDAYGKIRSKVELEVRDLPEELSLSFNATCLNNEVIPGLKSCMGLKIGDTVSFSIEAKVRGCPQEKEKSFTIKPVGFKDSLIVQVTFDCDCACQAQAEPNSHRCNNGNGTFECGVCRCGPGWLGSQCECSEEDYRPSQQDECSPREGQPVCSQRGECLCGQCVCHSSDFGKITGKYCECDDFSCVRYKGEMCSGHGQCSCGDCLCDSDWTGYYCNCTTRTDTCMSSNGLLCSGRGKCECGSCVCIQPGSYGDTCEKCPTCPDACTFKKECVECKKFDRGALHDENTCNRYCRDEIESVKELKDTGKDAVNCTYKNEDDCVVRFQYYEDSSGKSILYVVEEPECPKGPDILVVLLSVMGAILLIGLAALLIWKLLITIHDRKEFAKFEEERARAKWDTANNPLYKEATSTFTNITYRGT
Chain of human αVβ3 integrin, purified (human) (P06756 31-1048, form in doubt, chain 1 of 2): as the sequence (P06756 31-1048, chain 1 of 2) above
Chain of human αVβ3 integrin, purified (human) (P05106 27-788, form in doubt, chain 2 of 2, further chain): as the sequence (P05106 27-788, chain 2 of 2, further chain) above

Kd [1] [nM]	Kd [2] [nM]	Receptors per cell (receptors/cell) [3]	Receptors per cell (receptors/cell) [4]	A375S.2 cell adhesion to fibrin, % of no-antibody control (10 µg/ml) [5] [%]	A375S.2 cell adhesion to fibrinogen, % of no-antibody control (10 µg/ml) [5] [%]	A375S.2 cell adhesion to fibronectin, % of no-antibody control (10 µg/ml) [5] [%]	A375S.2 cell adhesion to gelatin, % of no-antibody control (10 µg/ml) [5] [%]	A375S.2 cell adhesion to type I collagen, % of no-antibody control (10 µg/ml) [5] [%]	A375S.2 cell adhesion to vitronectin, % of no-antibody control (10 µg/ml) [5] [%]	HUVEC adhesion to fibrin, % of no-antibody control (10 µg/ml) [5] [%]	HUVEC adhesion to fibrinogen, % of no-antibody control (10 µg/ml) [5] [%]	HUVEC adhesion to fibronectin, % of no-antibody control (10 µg/ml) [5] [%]	HUVEC adhesion to gelatin, % of no-antibody control (10 µg/ml) [5] [%]	HUVEC adhesion to type I collagen, % of no-antibody control (10 µg/ml) [5] [%]	HUVEC adhesion to vitronectin, % of no-antibody control (10 µg/ml) [5] [%]	Kd [6] [nM]	EC50 [7] [µg/mL]	Binder
0.25	10	370000	660000	12.9	6.5	104	6	93.1	38.1	35.8	8.7	96.3	2.5	99.6	54.9	22	–	ReoPro (c7E3 Fab) (Fab, INN chains, looked up, V domains shown, Fab 125I label) VH: EVQLQQSGTVLARPGASVKMSCEASGYTFTNYWMHWVKQRPGQGLEWIGAIYPGNSDTSYIQKFKGKAKLTAVTSTTSVYMELSSLTNEDSAVYYCTLYDGYYVFAYWGQGTLVTVSA VL: EIVLTQSPVTLSVTPGDSVSLSCRASRDISNNLHWFQQTSHESPRLLIKYASQSMSGIPSRFSGSGSGTDFTLSINSVETEDFGMYFCQQTNSWPYTFGGGTKLEIK
–	–	–	–	–	–	–	–	–	–	–	–	–	–	–	–	–	0.07	c7E3 IgG (antibody, INN chains, looked up, V domains shown, IgG) VH: EVQLQQSGTVLARPGASVKMSCEASGYTFTNYWMHWVKQRPGQGLEWIGAIYPGNSDTSYIQKFKGKAKLTAVTSTTSVYMELSSLTNEDSAVYYCTLYDGYYVFAYWGQGTLVTVSA VL: EIVLTQSPVTLSVTPGDSVSLSCRASRDISNNLHWFQQTSHESPRLLIKYASQSMSGIPSRFSGSGSGTDFTLSINSVETEDFGMYFCQQTNSWPYTFGGGTKLEIK
